The values that follow come from US20050064507A1, “Determining kinase specificity” (priority 2003, published 2005).

The target of assay [1] is SHP-1 phosphopeptide KKKLEVLQ-pS-QKGQESEY (SEQ ID NO:292) (human). Put plainly: ELISA on phosphopeptides synthesized in microtiter wells. To be noted: scale: normalized. Background: An ELISA detects its analyte on a solid surface through an enzyme-linked reagent.
Assay [2] deals with SHP-1 phosphopeptide MKNAHAKA-pS-RTSSKHKE (SEQ ID NO:289) (human). The description is as above. To be noted: scale: normalized.
Assay [3] addresses SHP-1 phosphopeptide PSEPGGVL-pS-FLDQINQR (SEQ ID NO:293) (human). The description is as above. The note with it: scale: normalized.
The target in assay [4] is SHP-1 phosphopeptide LKGRGVHG-pS-FLARPSRK (SEQ ID NO:299) (human). Described as above. The note with it: scale: normalized.
Assay [5] addresses SHP-1 phosphopeptide AHAKASRT-pS-SKHKEDVY (SEQ ID NO:291) (human). Described as above. To be noted: scale: normalized.
In assay [6] the target is SHP-1 phosphopeptide HAKASRTS-pS-KHKEDVYE (SEQ ID NO:294) (human). Described as above. To be noted: scale: normalized.
Assay [7] addresses SHP-1 phosphopeptide PLNCSDPT-pS-ERWYHGHM (SEQ ID NO:297) (human). The assay is described as above. The note with it: scale: normalized.
In assay [8] the target is SHP-1 phosphopeptide ADKEKSKG-pS-LKRK (SEQ ID NO:298) (human). Described as above. To be noted: scale: normalized.
Assay [9] deals with SHP-1 phosphopeptide KNQGDFSL-pS-VRVGDQVT (SEQ ID NO:296) (human). The description is as above. To be noted: scale: normalized.
Assay [10] concerns the target SHP-1 phosphopeptide HGSFLARP-pS-RKNQGDFS (SEQ ID NO:300) (human). The description is as above. To be noted: scale: normalized.
The target in assay [11] is SHP-1 phosphopeptide RVILQGRD-pS-NIPGSDYI (SEQ ID NO:290) (human). Described as above. The note with it: scale: normalized.
Assay [12] has as its target SHP-1 phosphopeptide PWTFLVRE-pS-LSQPGDFV (SEQ ID NO:295) (human). Described as above. To be noted: scale: normalized.
Assay [13] addresses LIMK-2 peptide … (SEQ ID NO:121) (human). Put plainly: pPKC Ab binding to biotinylated peptide on avidin-coated plate.
Assay [14] addresses LIMK-2 peptide … (SEQ ID NO:121) after phosphorylation by PKC-theta (human). Described as above.
Assay [15] has as its target MLK3 peptide … (SEQ ID NO:76) (human). Described as above.
Assay [16] deals with MLK3 peptide … (SEQ ID NO:76) after phosphorylation by PKC-theta (human). Described as above.
In assay [17] the target is LIMK-2 peptide … (SEQ ID NO:121) after phosphorylation by PKC-theta (human). The assay can be described thus: pPKC Ab binding to biotinylated peptide on avidin-coated plate; signal after minus signal without PKC-theta.
In assay [18] the target is MLK3 peptide … (SEQ ID NO:76) after phosphorylation by PKC-theta (human). Described as above.

With “phospho-PKC motif antibody (Phospho-(Ser) PKC Substrate Antibody, Cell Signaling Technology)”, the Binding of pPKC antibody in assay [1] was found to be 11; in [2], 18; in assay [3] it was 9; in assay [4] it was 54; in assay [5] it was 12; in [6] it was 7. The Binding of pPKC antibody in assay [7] came to 0; in [8] it was 100; in assay [9], 3; in assay [10] it was 39; in [11], 13; in assay [12], 5. The pPKC Ab Signal on peptide without exposure to PKC-theta in [13] came to 0.02; in assay [15] it was 0.07. Moreover, the values for the pPKC Ab Signal on peptide after exposure to PKC-theta phosphorylation in assay [14] and in [16] were 1.13 and 1.02, respectively. In addition, the pPKC Ab Signal amount dependent on PKC phosphorylation in [17] is 1.11; in [18] it was 0.95.
